Measured values reported in the supplement of paper PMC7125110.
± gives the standard error. For some assays here: Variants at the floor of the assay were thinned out.

B1: glmS ribozyme (parent)
chain: AUAAAAGCGCCAGAACUACAGAAAUGUAGUUGACGAGGAGGAGGUUUAUCGAAUUUUCGGCGGAUGCCUCCAAA

Assays:
Settings in all cases: with glucosamine-6-phosphate
glucosamine-6-phosphate [1] = variants of: B1; assay: kcat; higher = faster cleavage; RNA array
How it was run: (§1)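 Weighted Michaelis–Menten fits across concentrations supplied kcat and KM, based on kobs from one- or two-exponential decay fits to normalised per-tile medians. The data came from barcoded ribozyme variants transcribed in situ by E. coli RNA polymerase on sequenced MiSeq chips and tracked at 37 °C by a hybridised Cy3 probe. Glucosamine-6-phosphate (40 μM to 10 mM) in HEPES/KCl/Mg(OAc)2 buffer was flowed in.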

glucosamine-6-phosphate [2] = variants of: B1; assay: KM; higher = weaker cofactor use; RNA array
How it was run: as §1

glucosamine-6-phosphate [3] = variants of: B1; assay: self-cleavage kobs at 640 uM GlcN6P; higher = faster cleavage; RNA array
How it was run: as §1

glucosamine-6-phosphate [4] = variants of: B1; assay: self-cleavage kobs at 2500 uM GlcN6P; higher = faster cleavage; RNA array
How it was run: as §1

glucosamine-6-phosphate [5] = variants of: B1; assay: self-cleavage kobs at 10000 uM GlcN6P; higher = faster cleavage; RNA array
How it was run: as §1

glucosamine-6-phosphate [6] = variants of: B1; assay: self-cleavage kobs at 160 uM GlcN6P; higher = faster cleavage; RNA array
How it was run: as §1

glucosamine-6-phosphate [7] = variants of: B1; assay: self-cleavage kobs at 40 uM GlcN6P; higher = faster cleavage; RNA array
How it was run: as §1

Variant	kcat (glucosamine-6-phosphate [1]) [s⁻¹]	KM (glucosamine-6-phosphate [2]) [µM]	self-cleavage kobs at 640 uM GlcN6P (glucosamine-6-phosphate [3]) [s⁻¹]	self-cleavage kobs at 2500 uM GlcN6P (glucosamine-6-phosphate [4]) [s⁻¹]	self-cleavage kobs at 10000 uM GlcN6P (glucosamine-6-phosphate [5]) [s⁻¹]	self-cleavage kobs at 160 uM GlcN6P (glucosamine-6-phosphate [6]) [s⁻¹]	self-cleavage kobs at 40 uM GlcN6P (glucosamine-6-phosphate [7]) [s⁻¹]
A42U U65G	0.000343 ± 2.8e-05	3030 ± 500	5.7e-05 ± 1e-05	0.000165 ± 1.9e-05	0.000257 ± 2.8e-05	–	–
G40C U55G	0.000581 ± 0.00017	–	0.000531 ± 0.0001	0.000712 ± 0.00015	0.00045 ± 8.6e-05	0.000102 ± 2.2e-05	–
A42U C70U	0.000154 ± 2e-05	1640 ± 560	3.64e-05 ± 7.2e-06	0.000112 ± 1.2e-05	0.000126 ± 1.2e-05	–	–
A42U C70G	2.5e-05 ± 2e-06	979 ± 380	–	–	2.35e-05 ± 9.3e-06	–	–
G43U G66A	2.89e-05 ± 1.6e-06	431 ± 170	–	–	–	–	–
A42U A52U	3e-05 ± 6.8e-07	2350 ± 200	< 1e-05	–	2.43e-05 ± 9.1e-06	< 1e-05	–
G41A C71G	0.000168 ± 7.8e-06	1080 ± 150	6.55e-05 ± 9.8e-06	0.000106 ± 2.1e-05	0.000154 ± 1.4e-05	–	–
G41U A53U	0.00104 ± 0.00026	889 ± 390	0.000413 ± 8.1e-05	0.000697 ± 0.0001	0.00119 ± 0.00021	0.000145 ± 2.2e-05	9.28e-05 ± 2e-05
A42G U56C	0.00693 ± 0.0014	3180 ± 860	0.00106 ± 0.00018	0.00317 ± 0.0005	0.00522 ± 0.0008	0.000469 ± 8.9e-05	7.76e-05 ± 1.5e-05
A42G U56A	0.0334 ± 0.011	4460 ± 1800	0.00451 ± 0.001	0.0106 ± 0.0033	0.024 ± 0.0052	0.000893 ± 0.00024	0.000401 ± 8.1e-05
A42U U45C	0.000116 ± 1e-05	2890 ± 650	2.56e-05 ± 1.1e-05	5.1e-05 ± 1e-05	9.13e-05 ± 1.2e-05	–	–
G44A U54G	0.000522 ± 0.00012	–	0.000231 ± 7.3e-05	0.000634 ± 0.00013	0.000438 ± 6.2e-05	–	–
A42C C50A	< 1e-05	–	–	< 1e-05	< 1e-05	–	< 1e-05
G43A C67A	0.00175 ± 0.00022	976 ± 200	0.000611 ± 0.00013	0.00156 ± 0.00025	0.00147 ± 0.00026	0.000242 ± 6.6e-05	7.15e-05 ± 1.3e-05
G40U U56G	0.00147 ± 0.00055	–	0.000431 ± 6e-05	0.00136 ± 0.00015	0.000885 ± 0.00019	0.000107 ± 1.6e-05	4.98e-05 ± 1.7e-05
G40U U65G G66U	3.4e-05 ± 4.8e-06	–	–	–	3.38e-05 ± 1.5e-05	–	< 1e-05

Variant	kcat (glucosamine-6-phosphate [1]) [s⁻¹]	KM (glucosamine-6-phosphate [2]) [µM]	self-cleavage kobs at 640 uM GlcN6P (glucosamine-6-phosphate [3]) [s⁻¹]	self-cleavage kobs at 2500 uM GlcN6P (glucosamine-6-phosphate [4]) [s⁻¹]	self-cleavage kobs at 10000 uM GlcN6P (glucosamine-6-phosphate [5]) [s⁻¹]	self-cleavage kobs at 160 uM GlcN6P (glucosamine-6-phosphate [6]) [s⁻¹]	self-cleavage kobs at 40 uM GlcN6P (glucosamine-6-phosphate [7]) [s⁻¹]
G40C U47A	0.00182 ± 0.0003	1170 ± 310	0.000511 ± 0.0001	0.00128 ± 0.00024	0.0017 ± 0.00019	0.000192 ± 3.4e-05	7.98e-05 ± 1.1e-05
G44A U47A	0.000358 ± 9.3e-05	3500 ± 1700	7.28e-05 ± 1.8e-05	0.000137 ± 2.1e-05	0.00028 ± 4.7e-05	–	< 1e-05
G44U G66A	0.000401 ± 9.1e-05	–	0.000153 ± 3.3e-05	0.000236 ± 4.4e-05	0.000438 ± 0.0001	–	–
A42U	0.00024 ± 2.1e-05	1350 ± 270	7.53e-05 ± 1.4e-06	0.000187 ± 3.7e-06	0.000203 ± 2.9e-06	2.06e-05 ± 1.8e-06	< 1e-05
A42G	0.0432 ± 0.015	1270 ± 530	0.0128 ± 0.00054	0.0238 ± 0.0016	0.0639 ± 0.0036	0.00406 ± 0.00021	0.00143 ± 3.4e-05
A42C	1.83e-05 ± 2.5e-07	5140 ± 190	–	–	1.21e-05 ± 1.4e-06	–	–
G41U U56C	3.03e-05 ± 3.2e-06	1560 ± 400	–	–	–	< 1e-05	–
G41U U56G	0.000847 ± 0.00013	2280 ± 590	0.000185 ± 3.5e-05	0.000491 ± 5.8e-05	0.00064 ± 9.6e-05	4.73e-05 ± 1.1e-05	2.66e-05 ± 1.2e-05
G44U A52U	1.54e-05 ± 1.1e-06	–	< 1e-05	–	–	–	< 1e-05
G40U C67A	0.000158 ± 6.3e-05	–	7.75e-05 ± 1.4e-05	9.78e-05 ± 1.7e-05	0.000218 ± 5.5e-05	–	–
G41C C70A	0.000866 ± 0.00015	762 ± 230	0.000392 ± 6.6e-05	0.00078 ± 0.00012	0.000775 ± 9.6e-05	0.000116 ± 2.1e-05	5.77e-05 ± 8.1e-06
G41C U54A	8.93e-05 ± 2e-05	–	7.27e-05 ± 1.6e-05	7.27e-05 ± 1.5e-05	8.37e-05 ± 2.2e-05	–	–
G41C U47C	3.99e-05 ± 4.8e-06	–	–	–	3.66e-05 ± 1.1e-05	–	–
G43A U46A	1.87e-05 ± 2.1e-06	–	–	–	–	–	< 1e-05
G41U U55G	0.000303 ± 5.3e-05	–	0.000276 ± 3.9e-05	0.000419 ± 7.2e-05	0.000252 ± 3.2e-05	9.74e-05 ± 2.6e-05	3.39e-05 ± 1.1e-05
